Reference: patent US8394929B2, “Nogo receptor-mediated blockade of axonal growth” (Yale University, priority 2000, dated 2013)

Assays:
[1] = tested on: GST-Nogo-induced growth cone collapse; experiment: Blockade of Nogo-induced growth cone collapse in chick DRG cultures; format: cell-based; settings: GST-Nogo / Nogo-66 as collapsing agent
Method: (§1) For all experiments involving cell culture, the following methods were employed. The culture of embryonic chick E10 and E12 dorsal root ganglion explants and dissociated neurons utilized methods described for E7 dorsal root ganglion cultures (Takahashi et al., (1998) Nature Neurosci. 1, 487-493; Takahashi et al., (1999) Cell 99, 59-69; Goshima et al., (1995) Nature 376, 509-514; Jin & Strittmatter, (1997) J. Neurosci. […]). NGF-differentiated PC12 cells were cultured as described (Strittmatter et al., (1994) J. Neurosci. 14, 2327-2338). Embryonic spinal cord explants (rat E10 or chick E5) were cultured for 7-14 days in the presence of PDGF-AA to induce differentiation of some cells into mature oligodendrocytes (Vartanian et al., (1999) Proc. Natl. Acad. Sci. USA 96, 731-735). The procedure for growth cone collapse assays is identical to that for analysis of Sema3A-induced growth cone collapse (Takahashi et al., (1998) Nature Neurosci. 1, 487-493; Takahashi et al., (1999) Cell 99, 59-69; Goshima et al., (1995) Nature 376, 509-514; Jin & Strittmatter, (1997) J. Neurosci. 17, 6256-6263). The method for analysis of total neurite outgrowth has also been described (Goshima et al., (1995) Nature 376, 509-514; Jin & Strittmatter, (1997) J. Neurosci. 17, 6256-6263; Strittmatter et al., (1994) J. Neurosci. 14, 2327-2338). In outgrowth assays, proteins and peptides were added one hour after plating to minimize any effect on the total number of adherent cells. To test the effect of substrate-bound GST or GST-Nogo, the protein solutions were dried on poly-L-lysine coated glass, washed and then coated with laminin. For E12 cultures, the neuronal identity of cells was verified by staining with anti-neurofilament antibodies (2H3, Develomental Studies Hybridoma Bank) and neurites were traced by observation of rhodamine-phalloidin staining of F-actin in processes.
In the growth cone collapse assay, the response to Nogo was measured in the presence of various potential antagonistic peptides. […] This blockade supports the hypothesis that Nogo is a primary inhibitory component of CNS myelin.
For further testing, a synthetic peptide containing amino acid residues #1055-1094 of hNgR, acetylated at the […] was used [hereinafter “Peptide 140”]. […] Antagonist of Nogo-66 inhibitory activity may act by competing for, and thereby blocking NgR binding sites. To determine the antagonistic activity of Peptide 140, the above synthetic form of the peptide was added to E12 chick DRG explant cultures approximately 10 min before application of various concentrations of GST-NogoA (residues #1055-1120), TPA or Sema3A. 30 min later, cultures were fixed and growth cone collapse was assessed following staining with rhodamine-phalloidin.

[2] = tested on: GST-Nogo-66 inhibition of neurite outgrowth; experiment: Blockade of Nogo-induced inhibition of neurite outgrowth in chick DRG neurons; format: cell-based
Method: as §1
Peptide 140 was tested for its ability to neutralize neurite outgrowth inhibition caused by the addition of GST fused to residues #1055-1120 of hNogoA (designated Nogo-66 in FIG. 16e). Plastic chamber slides were coated with 100 μg ml^−1 poly-L-lysine, washed, and dried. 3 μl drops of PBS containing GST-hNogoA(residues #1055-1120) were spotted and dried. Slides were then rinsed and coated with 10 μg ml fs24^−1 laminin before addition of dissociated E12 chick DRGs. Peptide 140 was added at the time of cell plating. Cultures were grown for 5-7 h after which neurite outgrowth was assessed.
Although the role of the GPI anchor may be to regulate NgR cellular compartmentalization, another possible role for the GPI linkage is to provide a NgR cleavage site. Cleaving NgR could serve to affect hNogo-A (1055-1120) signaling by rendering a neuron insensitive to hNogo-A (1055-1120) and by releasing soluble NgR that could then act on adjacent cells to modulate hNogo-A (1055-1120) signaling. To determine if soluble mNgR modulates hNogo-A (1055-1120)-dependent inhibition, a soluble mNgR was generated by inserting a truncated cDNA encoding mNgR residues 1-348 in frame with a myc-His carboxy tag into pcDNA3.1. The resulting plasmid expressing mNgREcto was transfected into HEK293T cells, and conditioned media containing mNgREcto protein was collected. To test the effect of mNgREcto on Nogo signaling, E13 dissociated DRGs were plated in the presence of hNogo-A (1055-1120) or myelin. The inhibitors were presented in either soluble or substrate-bound forms. For neurite outgrowth assays on hNogo-A (1055-1120) or myelin substrates, Permanox chamber slides were coated with 100μ, fs24 g ml^−1 poly-L-Lysine, washed, and then 3-μl drops of phosphate-buffered saline (hereinafter “PBS”) containing 0, 10, 50, or 150 ng of GST-hNogo-A (1055-1120) or myelin were spotted and dried. GST-hNogo-A (1055-1120) and myelin were prepared as previously described (GrandPre et al., supra; Fournier et al., J. Cell Biol. 149:411-421, 2000). After three PBS washes, slides were coated with 10 μg ml^−1 laminin. […]

[3] = tested on: CNS myelin induced neurite outgrowth inhibition; experiment: Blockade of CNS myelin induced neurite outgrowth inhibition in chick DRG neurons; format: cell-based
Method: To determine the antagonistic activity of Peptide 140 against CNS myelin, the above synthetic peptide was added approximately 10 min before application of CNS myelin. 30 min later, cultures were fixed and growth cone collapse was assessed following staining with rhodamine-phalloidin. For neurite outgrowth assays, plastic chamber slide were coated with 100 μg ml^−1 poly-L-lysine, washed, and dried. 3 μl drops of PBS containing CNS myelin were spotted and dried. Slides were then rinsed and coated with 10 μg ml fs24^−1 laminin before addition of dissociated E12 chick DRGs. Peptide 140, or the scrambled version of Peptide 140, was added at the time of cell plating. Cultures were grown for 5-7 h after which neurite outgrowth was assessed.
Although the role of the GPI anchor may be to regulate NgR cellular compartmentalization, another possible role for the GPI linkage is to provide a NgR cleavage site. Cleaving NgR could serve to affect hNogo-A (1055-1120) signaling by rendering a neuron insensitive to hNogo-A (1055-1120) and by releasing soluble NgR that could then act on adjacent cells to modulate hNogo-A (1055-1120) signaling. To determine if soluble mNgR modulates hNogo-A (1055-1120)-dependent inhibition, a soluble mNgR was generated by inserting a truncated cDNA encoding mNgR residues 1-348 in frame with a myc-His carboxy tag into pcDNA3.1. The resulting plasmid expressing mNgREcto was transfected into HEK293T cells, and conditioned media containing mNgREcto protein was collected. To test the effect of mNgREcto on Nogo signaling, E13 dissociated DRGs were plated in the presence of hNogo-A (1055-1120) or myelin. The inhibitors were presented in either soluble or substrate-bound forms. For neurite outgrowth assays on hNogo-A (1055-1120) or myelin substrates, Permanox chamber slides were coated with 100μ, fs24 g ml^−1 poly-L-Lysine, washed, and then 3-μl drops of phosphate-buffered saline (hereinafter “PBS”) containing 0, 10, 50, or 150 ng of GST-hNogo-A (1055-1120) or myelin were spotted and dried. GST-hNogo-A (1055-1120) and myelin were prepared as previously described (GrandPre et al., supra; Fournier et al., J. Cell Biol. 149:411-421, 2000). After three PBS washes, slides were coated with 10 μg ml^−1 laminin. Laminin was then aspirated and dissociated E13 chick DRG neurons were added. After 6-8 hr of outgrowth, cultures were fixed and neurite outgrowth lengths were assessed. For blockade experiments with NgREcto, spots were incubated with HEK293T cell conditioned media or NgREcto-transfected-HEK293T cell conditioned media following for 1 hr following the laminin coating step and before the addition of dissociated neurons. […] Thus, soluble fragments of NgR might serve physiologically or pharmacologically to reduce GST-hNogo-A (1055-1120) inhibition of axonal regeneration.

mouse NgR = molecular target: T1, mouse NgR (Mus musculus, UniProt Q99PI8); experiment: AP-fusion protein binding to COS-7 cells expressing mouse NgR
T1 construct: expressed in transfected cells; host or cells: COS-7
T1 sequence (Q99PI8 27-473): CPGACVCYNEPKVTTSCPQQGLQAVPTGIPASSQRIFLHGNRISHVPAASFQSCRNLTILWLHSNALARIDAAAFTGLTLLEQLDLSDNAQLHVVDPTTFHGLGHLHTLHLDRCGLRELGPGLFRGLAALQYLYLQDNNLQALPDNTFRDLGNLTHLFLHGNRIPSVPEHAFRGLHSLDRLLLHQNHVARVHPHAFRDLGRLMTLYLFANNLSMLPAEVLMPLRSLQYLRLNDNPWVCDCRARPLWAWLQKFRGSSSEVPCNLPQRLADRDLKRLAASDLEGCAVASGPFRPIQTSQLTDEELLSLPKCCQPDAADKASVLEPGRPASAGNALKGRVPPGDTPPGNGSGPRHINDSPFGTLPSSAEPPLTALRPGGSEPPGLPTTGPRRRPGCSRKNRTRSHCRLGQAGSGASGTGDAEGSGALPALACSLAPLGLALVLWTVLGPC
Method: To determine if AP-fused deletion mutants of Nogo-66 bind mouse NgR (“mNgR”), COS-7 cells were transfected with a plasmid encoding the mouse NgR sequence ligated into pcDNA3.1. 48 hours after transfection, cells were washed with HBH (Hanks balanced salt solution containing 20 mM sodium Hepes, pH 7.05, and 1 mg ml^−1 bovine serum albumin) and then incubated with condition medium containing one of the AP-fusion proteins described above for 2 hours at 37° C. Cells were then washed, fixed, and left in HBH at 67° C. for 14-16 h to inactivate endogenous AP. AP-fusion protein binding to NgR expressing COS-7 cells was detected with the substrates NBT and BCIP (FIG. 13b).
To determine whether mNgR or mNgR deletion mutants bound to hNogo-A (1055-1120), wtNgR or mNgR deletion mutants were transfected into COS-7 cells. Forty-eight hours after the transfection, the transfected COS-7 cells were washed with hanks balanced salt solution containing 20 mM sodium HEPES, pH 7.05, and 1 mg/ml bovine serum albumin (BSA) [hereinafter “HBH”]. Cells were then incubated for 2 hours at 23° C. with a conditioned medium enriched with purified AP-hNogo-A (1055-1120) diluted in HBH. AP-fusion protein was detected as previously described for AP-Sema3A (Takahashi et al., Nature Neurosci. 1:487-493, 1998).

Substance | blockade of Nogo-induced growth cone collapse (in words) [1] | binding to NgR expressing COS-7 cells (in words) (mouse NgR) | other results
21-45: 25 amino acid peptide, residues 21-45 of the extracellular domain of Nogo (RAYLESEVAISEELVQKYSNSALGH) [Peptide 21-45] | blocking activity at μM concentrations | – | –
acetyl-SYVKEYAPIFAGKSRGEIKYQSIEIHEAQVRSDELVQSLN-amide (Ac-SYVKEYAPIFAGKSRGEIKYQSIEIHEAQVRSDELVQSLN-NH2) [scrambled version of Peptide 140, reference compound] | – | – | blockade of Nogo-induced neurite outgrowth inhibition (in words) [2]: does not result in blockade of outgrowth inhibition; blockade of CNS myelin induced neurite outgrowth inhibition (in words) [3]: ineffective
1-25: 25 amino acid peptide, residues 1-25 of the extracellular domain of Nogo (FRIYKGVIQAIQKSDEGHPFRAYLE) [Peptide 1-25] | blocking activity at μM concentrations | – | –
1-31: peptides having residues 1-31 of hNogoA (#1055-1120) (RIYKGVIQAIQKSDEGHPFRAYLESEVAISE; UniProt Q9NQC3 1055-1085, looked up, fragment) [Peptide 1-31] | – | almost no binding | –
10-40: peptides having residues 10-40 of hNogoA (#1055-1120) (IQKSDEGHPFRAYLESEVAISEELVQKYSNS) [Peptide 10-40] | – | no binding | –
2-40: peptides having residues 2-40 of the hNogoA (#1055-1120) (IYKGVIQAIQKSDEGHPFRAYLESEVAISEELVQKYSNS; UniProt Q9NQC3 1056-1094, looked up, fragment) [Peptide 2-40] | – | bound mNgR well | –
1-33: peptides having residues 1-33 of hNogoA (#1055-1120) (RIYKGVIQAIQKSDEGHPFRAYLESEVAISEEL; UniProt Q9NQC3 1055-1087, looked up, fragment) [Peptide 1-33] | – | – | binding to mNgR, less compared to the strong binders (mouse NgR; data not shown): approximately 50%
1-34: peptides having residues 1-34 of hNogoA (#1055-1120) (RIYKGVIQAIQKSDEGHPFRAYLESEVAISEELV; UniProt Q9NQC3 1055-1088, looked up, fragment) [Peptide 1-34] | – | bind strongly and almost equivalently | –
11-35: 25 amino acid peptide, residues 11-35 of the extracellular domain of Nogo (IQKSDEGHPFRAYLESEVAISEELV) [Peptide 11-35] | blocking activity at μM concentrations | – | –
1-30: peptides having residues 1-30 of hNogoA (#1055-1120) (RIYKGVIQAIQKSDEGHPFRAYLESEVAIS; UniProt Q9NQC3 1055-1084, looked up, fragment) [Peptide 1-30] | – | almost no binding | –
